Molecular target: precursor of the polypeptide that induces IFN-γ production in immunocompetent cells (human)

conversion of the precursor into the active polypeptide; IFN-γ content (IU/ml) induced in KG-1 cells by the reaction mixture, with Western blot time course: 4000 IU/ml
Substance: interleukin-1β converting enzyme (from UniProt P29466)

Source: patent publication US5891663
